# Earlier results as cited in patent publication US11850285B2, “Insulin-responsive glucagon delivery patch” (North Carolina State University, priority 2017, dated 2023).
# Details: in vivo
substance,measurement,value
Insulin glargine,duration,up to 24 hour
